Measured values reported in patent US20200115416A1 (REGENTS OF THE UNIVERSITY OF MINNESOTA, published 2020).
Square brackets hold non-standard residues; d marks the D form. hPhe = N[C@@H](CCc1ccccc1)C(=O)O

B1: c[Pro-Arg-Phe-Phe-His-Ala-Phe-DPro] (peptide)
peptide: cyclo(PRFFHAF[dP])
SMILES: C[C@@H]1NC(=O)[C@H](Cc2c[nH]cn2)NC(=O)[C@H](Cc2ccccc2)NC(=O)[C@H](Cc2ccccc2)NC(=O)[C@H](CCCNC(=N)N)NC(=O)[C@@H]2CCCN2C(=O)[C@H]2CCCN2C(=O)[C@H](Cc2ccccc2)NC1=O
B2: c[Pro-Arg-Phe-Phe-Phe-Ala-Phe-DPro] (peptide)
peptide: cyclo(PRFFFAF[dP])
SMILES: C[C@@H]1NC(=O)[C@H](Cc2ccccc2)NC(=O)[C@H](Cc2ccccc2)NC(=O)[C@H](Cc2ccccc2)NC(=O)[C@H](CCCNC(=N)N)NC(=O)[C@@H]2CCCN2C(=O)[C@H]2CCCN2C(=O)[C@H](Cc2ccccc2)NC1=O
B3: c[Pro-Arg-Phe-Phe-Trp-Ala-Phe-DPro] (peptide)
peptide: cyclo(PRFFWAF[dP])
SMILES: C[C@@H]1NC(=O)[C@H](Cc2c[nH]c3ccccc23)NC(=O)[C@H](Cc2ccccc2)NC(=O)[C@H](Cc2ccccc2)NC(=O)[C@H](CCCNC(=N)N)NC(=O)[C@@H]2CCCN2C(=O)[C@H]2CCCN2C(=O)[C@H](Cc2ccccc2)NC1=O
B4: c[Pro-Arg-Phe-Phe-Asn-Asp-Phe-DPro] (peptide)
peptide: cyclo(PRFFNDF[dP])
SMILES: N=C(N)NCCC[C@@H]1NC(=O)[C@@H]2CCCN2C(=O)[C@H]2CCCN2C(=O)[C@H](Cc2ccccc2)NC(=O)[C@H](CC(=O)O)NC(=O)[C@H](CC(N)=O)NC(=O)[C@H](Cc2ccccc2)NC(=O)[C@H](Cc2ccccc2)NC1=O
B5: c[Pro-Arg-Phe-Phe-Asn-Glu-Phe-DPro] (peptide)
peptide: cyclo(PRFFNEF[dP])
SMILES: N=C(N)NCCC[C@@H]1NC(=O)[C@@H]2CCCN2C(=O)[C@H]2CCCN2C(=O)[C@H](Cc2ccccc2)NC(=O)[C@H](CCC(=O)O)NC(=O)[C@H](CC(N)=O)NC(=O)[C@H](Cc2ccccc2)NC(=O)[C@H](Cc2ccccc2)NC1=O
B6: c[Pro-Arg-Phe-Phe-Asn-Lys-Phe-DPro] (peptide)
peptide: cyclo(PRFFNKF[dP])
SMILES: N=C(N)NCCC[C@@H]1NC(=O)[C@@H]2CCCN2C(=O)[C@H]2CCCN2C(=O)[C@H](Cc2ccccc2)NC(=O)[C@H](CCCCN)NC(=O)[C@H](CC(N)=O)NC(=O)[C@H](Cc2ccccc2)NC(=O)[C@H](Cc2ccccc2)NC1=O
B7: c[Pro-Arg-Phe-Phe-Asn-His-Phe-DPro] (peptide)
peptide: cyclo(PRFFNHF[dP])
SMILES: N=C(N)NCCC[C@@H]1NC(=O)[C@@H]2CCCN2C(=O)[C@H]2CCCN2C(=O)[C@H](Cc2ccccc2)NC(=O)[C@H](Cc2c[nH]cn2)NC(=O)[C@H](CC(N)=O)NC(=O)[C@H](Cc2ccccc2)NC(=O)[C@H](Cc2ccccc2)NC1=O
B8: c[Pro-Arg-Phe-Phe-Asn-Phe-Phe-DPro] (peptide)
peptide: cyclo(PRFFNFF[dP])
SMILES: N=C(N)NCCC[C@@H]1NC(=O)[C@@H]2CCCN2C(=O)[C@H]2CCCN2C(=O)[C@H](Cc2ccccc2)NC(=O)[C@H](Cc2ccccc2)NC(=O)[C@H](CC(N)=O)NC(=O)[C@H](Cc2ccccc2)NC(=O)[C@H](Cc2ccccc2)NC1=O
B9: c[Pro-Arg-Phe-Phe-Asn-Leu-Phe-DPro] (peptide)
peptide: cyclo(PRFFNLF[dP])
SMILES: CC(C)C[C@@H]1NC(=O)[C@H](CC(N)=O)NC(=O)[C@H](Cc2ccccc2)NC(=O)[C@H](Cc2ccccc2)NC(=O)[C@H](CCCNC(=N)N)NC(=O)[C@@H]2CCCN2C(=O)[C@H]2CCCN2C(=O)[C@H](Cc2ccccc2)NC1=O
B10: c[Pro-Arg-Phe-Phe-Asn-Gly-Phe-DPro] (peptide)
peptide: cyclo(PRFFNGF[dP])
SMILES: N=C(N)NCCC[C@@H]1NC(=O)[C@@H]2CCCN2C(=O)[C@H]2CCCN2C(=O)[C@H](Cc2ccccc2)NC(=O)CNC(=O)[C@H](CC(N)=O)NC(=O)[C@H](Cc2ccccc2)NC(=O)[C@H](Cc2ccccc2)NC1=O
B11: c[Pro-Arg-Phe-Phe-Asn-Ala-Ala-DPro] (peptide)
peptide: cyclo(PRFFNAA[dP])
SMILES: C[C@@H]1NC(=O)[C@H](CC(N)=O)NC(=O)[C@H](Cc2ccccc2)NC(=O)[C@H](Cc2ccccc2)NC(=O)[C@H](CCCNC(=N)N)NC(=O)[C@@H]2CCCN2C(=O)[C@H]2CCCN2C(=O)[C@H](C)NC1=O

Experiments:
Experiment in all cases: cell-based or functional assay
[1] = target: mouse melanocortin-5 receptor (mouse, UniProt P41149 1-325)
[2] = target: T1, mouse melanocortin-1 receptor (mouse, UniProt Q01727 1-315)
[3] = target: mouse melanocortin-3 receptor (mouse, UniProt P33033 1-323)
[4] = target: mouse melanocortin-4 receptor (mouse, UniProt P56450 1-332)
[5] = target: T1, mouse melanocortin-1 receptor; remark: listed apart in the source

Sequence of mouse melanocortin-3 receptor (P33033 whole entry): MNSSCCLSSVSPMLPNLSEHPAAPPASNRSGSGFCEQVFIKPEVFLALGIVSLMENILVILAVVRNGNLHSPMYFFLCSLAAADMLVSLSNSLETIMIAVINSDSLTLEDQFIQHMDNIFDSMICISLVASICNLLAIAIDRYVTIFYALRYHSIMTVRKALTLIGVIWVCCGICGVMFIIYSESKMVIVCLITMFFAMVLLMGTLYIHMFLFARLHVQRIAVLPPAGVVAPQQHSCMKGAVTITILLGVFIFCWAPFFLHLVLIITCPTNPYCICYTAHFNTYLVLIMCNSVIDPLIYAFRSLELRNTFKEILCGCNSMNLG
Sequence of mouse melanocortin-4 receptor (P56450 whole entry): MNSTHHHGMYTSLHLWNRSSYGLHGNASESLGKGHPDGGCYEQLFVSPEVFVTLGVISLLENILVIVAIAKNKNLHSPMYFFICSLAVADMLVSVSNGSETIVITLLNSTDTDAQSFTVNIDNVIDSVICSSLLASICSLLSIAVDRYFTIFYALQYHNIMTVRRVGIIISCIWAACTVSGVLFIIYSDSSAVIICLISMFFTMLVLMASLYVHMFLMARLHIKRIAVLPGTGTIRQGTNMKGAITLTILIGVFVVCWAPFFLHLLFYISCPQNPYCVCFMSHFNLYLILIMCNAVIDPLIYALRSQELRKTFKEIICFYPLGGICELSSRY
Sequence of mouse melanocortin-5 receptor (P41149 whole entry): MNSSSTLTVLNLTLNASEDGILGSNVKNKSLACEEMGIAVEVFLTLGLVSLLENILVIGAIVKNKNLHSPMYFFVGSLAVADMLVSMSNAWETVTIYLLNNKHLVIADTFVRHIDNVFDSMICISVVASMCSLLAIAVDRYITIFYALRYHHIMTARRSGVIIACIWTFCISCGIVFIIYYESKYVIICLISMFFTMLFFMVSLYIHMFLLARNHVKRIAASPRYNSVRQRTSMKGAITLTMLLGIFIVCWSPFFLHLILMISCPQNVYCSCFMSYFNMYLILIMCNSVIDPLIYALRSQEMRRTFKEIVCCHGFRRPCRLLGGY
T1 sequence (Q01727 whole entry): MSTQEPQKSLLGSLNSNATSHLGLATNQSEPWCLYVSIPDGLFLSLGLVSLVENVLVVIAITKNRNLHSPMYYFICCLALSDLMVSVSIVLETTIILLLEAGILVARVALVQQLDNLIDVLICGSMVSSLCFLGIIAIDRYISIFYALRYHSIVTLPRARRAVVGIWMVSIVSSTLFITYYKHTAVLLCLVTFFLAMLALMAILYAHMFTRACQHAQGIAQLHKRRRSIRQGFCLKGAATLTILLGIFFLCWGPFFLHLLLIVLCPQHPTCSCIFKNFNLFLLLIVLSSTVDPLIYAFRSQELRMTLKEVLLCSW

Row | Binder | inverse agonist apparent potency [1] [µM] | inverse agonist, % decrease from basal cAMP [1] [%] | agonist EC50 (cAMP AlphaScreen) [2] [µM] | agonist EC50 (cAMP AlphaScreen) [3] [µM] | antagonist pA2 (Schild, agonist NDP-MSH) [3] | agonist EC50 (cAMP AlphaScreen) [1] [µM] | agonist EC50 (cAMP AlphaScreen) [4] [µM] | antagonist pA2 (Schild, agonist NDP-MSH) [4] | % maximal NDP-MSH response at 100 µM (cAMP AlphaScreen) [2] [%] | % maximal NDP-MSH response at 100 µM (cAMP AlphaScreen) [4] [%] | % maximal NDP-MSH response at 100 µM (cAMP AlphaScreen) [3] [%] | inverse agonist, % change from basal cAMP at 100 µM [1] [%] | % maximal NDP-MSH response at 100 µM (cAMP AlphaScreen) [1] [%] | % receptor stimulation at 100 µM (cAMP AlphaScreen) [5] [%]
1 | B1 | 0.01 | -15 | > 100 | > 100 | 6.46 | – | – | – | – | – | – | – | – | –
2 | B2 | – | – | > 100 | > 100 | < 5.5 | > 100 | > 100 | 6.63 | – | – | – | – | – | –
3 | cyclo(PRFFVAF[dP]) [c[Pro-Arg-Phe-Phe-Val-Ala-Phe-DPro]] | 0.51 | -25 | – | > 100 | < 5.5 | – | > 100 | 5.9 | 55 | – | – | – | – | –
4 | B3 | 0.15 | -20 | – | – | 5.7 | – | – | 6.81 | 80 | 50 | 40 | – | – | –
5 | B4 | – | – | – | > 100 | < 5.5 | – | > 100 | < 5.5 | 65 | – | – | -25 | – | –
6 | B5 | – | – | – | > 100 | < 5.5 | > 100 | > 100 | < 5.5 | 60 | – | – | – | – | –
7 | B6 | – | – | – | – | < 5.5 | – | > 100 | 6.11 | 60 | – | 45 | – | 45 | –
8 | B7 | – | – | 2.6 | > 100 | < 5.5 | > 100 | > 100 | 6.07 | – | – | – | – | – | –
9 | B8 | – | – | – | – | 5.72 | – | – | 5.71 | 70 | 35 | 35 | – | 25 | –
10 | B9 | – | – | – | – | < 5.5 | > 100 | – | 6.18 | 80 | 25 | 25 | – | – | –
11 | B10 | – | – | > 100 | > 100 | < 5.5 | – | > 100 | 6.1 | – | – | – | -35 | – | –
12 | B11 | – | – | > 100 | > 100 | 6.1 | – | > 100 | 8.16 | – | – | – | -25 | – | –
13 | cyclo(PRF[hPhe]NAF[dP]) [c[Pro-Arg-Phe-hPhe-Asn-Ala-Phe-DPro]] | – | – | – | – | – | – | – | – | – | – | – | – | – | 35
